For the first test, the target named is T1, ENL YEATS domain (AviSUMO-ENL YEATS) (Homo sapiens, UniProt Q03111).
T1 construct: encoding ENL YEATS (aa 1−148) was cloned in pET28a-; made in house; host or cells: E. coli BL21(DE3pLysS), co-expressed with BirA (pBirAcm)
T1 sequence (Q03111 1-148): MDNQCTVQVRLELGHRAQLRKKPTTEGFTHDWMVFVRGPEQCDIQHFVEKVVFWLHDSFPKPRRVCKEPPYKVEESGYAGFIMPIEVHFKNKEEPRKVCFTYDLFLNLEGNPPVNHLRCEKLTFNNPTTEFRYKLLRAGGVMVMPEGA
The test is described as follows: Phage panning of BuK-containing 7-mer library against AviSUMO-ENL YEATS with Illumina NGS abundance. The following applies: sheet ENLR3: round 3 of panning against ENL YEATS; TAG = amber codon (BuK); 7-mer library positions V1-V7. The text has this: We utilized a previously established amber-obligate 7-mer phage display library to develop a phage display library enriched with BuK-containing 7-mer peptides. For detailed characterizations, including analysis of amber codon percentages, NNK trinucleotide analysis, and amino acid distribution at each position within the library, please refer to the work of Tharp et al.[10] Furthermore, the comprehensive raw NGS data for the amber-obligate 7-mer phage library can be found in the NCBI’s Sequence Read Archive, under the accession ID PRJNA606283. To produce the BuK-containing 7-mer phage library, the phages were produced in the presence of 5 mM BuK using TOP10 cells harboring the following three plasmids: (1) pADL-gIII, which contains the 7-mer amber-obligate peptide-coding DNA library positioned at the N-terminus of M13 pIII gene; (2) pCDF-BuKRS, which encodes BuKRS and its cognate tRNA^Pyl for the genetic incorporation of BuK at amber codons in the 7-mer library; and (3) M13KO7TAA, a helper phage plasmid engineered to have a TAA mutation at pIII so that its lack of a functional pIII allows an efficient multivalent display of the 7-mer library. The ENL YEATS domain containing an N-terminal AviSUMO-Tag was recombinantly expressed in E. coli together with BirA, a biotin ligase, for site-specific biotinylation at the AviTag. The biotinylated AviSUMO-ENL YEATS was immobilized on streptavidin-coated magnetic beads for panning with the BuK-containing phages. […] Phage libraries collected from the first and third rounds of selection were sequenced using Illumina next generation sequencing (NGS) and all sequenced data are available through the NCBI SRA database (Project PRJNA1041845). To prevent possible sequencing errors from affecting conclusions, sequences were filtered using previously published paired-end processing,[10] where any sequences containing more than one mismatch in the nonlibrary region or any mismatch in the library region were discarded. The NGS data provided DNA sequences encompassing both the library and nonlibrary regions. In our analysis, we included data from the nonlibrary region as a stringent quality control measure to filter out low-quality data. For our analysis, we utilized 51 nucleotides from the NGS output, with 21 nucleotides encoding the library region and an additional 30 nucleotides for the nonlibrary region. […] Among all the sequences, only 85 of them contained more than 100 copies (blue area), while the remaining sequences all had low abundances (<10^2 copies, dark and light gray areas), which constituted 85.2% of the first round population. After three panning rounds, the selection converged to two highly enriched sequences: YDVYCYX (ENL-S1) and WWIIEXG (ENL-S2, X denotes BuK). Out of 551 different unique sequences collected from the third round, ENL-S1 and ENL-S2 represented 85% of the entire library (Figure 2A and Figures S6–S8). Both peptide sequences corresponded to their own unique DNA sequence, rather than there being varying codons encoding the same amino acids (Figure S7). […] Two motifs were found in the majority of sequences with high abundance (greater than 0.1%) (Figure S6). A Y(C/L)Y pattern was identified in the residues adjacent to BuK in four of the eight top sequences. Also, an H(L/Y)(T/V)LFXG (X denotes BuK) motif was observed, albeit at lower abundances, in two of the top sequences. In the initial round of selection, we observed that only a small percentage of phages were eluted, which aligns with typical outcomes in phage selection experiments since only a low copy number of phages can bind to the target.[10],[45] With each successive round of selection, we noted a gradual increase in the percentage of phages eluted. This incremental, rather than sharp, increase was attributed to the intensification of selection pressures, such as the application of more stringent washing protocols. We aimed for the incremental increase to retain potent clones with low copy numbers from the previous selection cycle. […]
As for DLVYCYTAG, the “n (number of NGS reads of the unique amino acid sequence)” value stood at 1 and the “percent (share of sequence reads)” value turned out to be 0.0009106%.
As to FDVYCYTAG, the “n (number of NGS reads of the unique amino acid sequence)” value is listed as 2 and the “percent (share of sequence reads)” value was determined as 0.001821%.
As to YDVFCYTAG, the “n (number of NGS reads of the unique amino acid sequence)” value is on record as 8 and the “percent (share of sequence reads)” value was determined as 0.007285%.
Turning to WLIIETAGD, the “n (number of NGS reads of the unique amino acid sequence)” value turned out to be 2 and the “percent (share of sequence reads)” value is on record as 0.001821%.
Taken in the same sequence, the figures for WFILYTAGD were 25 and 0.02277%.
With YDDYCYTAG, the “n (number of NGS reads of the unique amino acid sequence)” value is 2 and the “percent (share of sequence reads)” value is 0.001821%.
As to CWIIETAGG, the “n (number of NGS reads of the unique amino acid sequence)” value was found to be 22 and the “percent (share of sequence reads)” value is reported as 0.02003%.
Taken in the same sequence, the figures for QCGPRYD were 11 and 0.01002%.
For QCGPRTAGD, in that order: 9049 and 8.24%.
Taken in the same sequence, the figures for YDVYCYW were 26 and 0.02368%.
As for QCGPQTAGD, the “n (number of NGS reads of the unique amino acid sequence)” value was determined as 2 and the “percent (share of sequence reads)” value stood at 0.001821%.
As for CYPTAGKCC, the “n (number of NGS reads of the unique amino acid sequence)” value was found to be 1 and the “percent (share of sequence reads)” value amounted to 0.0009106%.
For QYGPRTAGD, in that order: 2 and 0.001821%.
With HAIYCYTAG, the “n (number of NGS reads of the unique amino acid sequence)” value is on record as 759 and the “percent (share of sequence reads)” value was 0.6912%.
For the substance HLTLFTAGG, the “n (number of NGS reads of the unique amino acid sequence)” value is 2802 and the “percent (share of sequence reads)” value came to 2.552%.
As for HTAGSFCRL, the “n (number of NGS reads of the unique amino acid sequence)” value was 1 and the “percent (share of sequence reads)” value was 0.0009106%.
For RWIIETAGG, in that order: 7 and 0.006374%.
For HHVLFTAGG, in that order: 1 and 0.0009106%.
For HLNLFTAGG, in that order: 2 and 0.001821%.
For the substance DDVYCYTAG, the “n (number of NGS reads of the unique amino acid sequence)” value is given as 7 and the “percent (share of sequence reads)” value came to 0.006374%.
For YDFYCYTAG, in that order: 51 and 0.04644%.
For IRCHPWTAG, in that order: 1 and 0.0009106%.
Taken in the same sequence, the figures for HDVYCYTAG were 13 and 0.01184%.
For the substance TAGTLWNVG, the “n (number of NGS reads of the unique amino acid sequence)” value was determined as 2 and the “percent (share of sequence reads)” value was 0.001821%.
As to YDLYCYTAG, the “n (number of NGS reads of the unique amino acid sequence)” value is recorded as 3 and the “percent (share of sequence reads)” value is 0.002732%.
For the substance YDVYWYTAG, the “n (number of NGS reads of the unique amino acid sequence)” value turned out to be 3 and the “percent (share of sequence reads)” value came out at 0.002732%.
Taken in the same sequence, the figures for LTCYCYTAG were 39 and 0.03551%.
For WWIIEQG, in that order: 2 and 0.001821%.
For YDVYCHTAG, in that order: 13 and 0.01184%.
For the substance HLTLFTAGC, the “n (number of NGS reads of the unique amino acid sequence)” value was 2 and the “percent (share of sequence reads)” value is 0.001821%.
SCVVFTAGI: the “n (number of NGS reads of the unique amino acid sequence)” value stood at 2 and the “percent (share of sequence reads)” value was 0.001821%.
Taken in the same sequence, the figures for HPIYCYTAG were 1 and 0.0009106%.
Taken in the same sequence, the figures for LAYCTAGHN were 2 and 0.001821%.
Taken in the same sequence, the figures for QCGPRTAGN were 3 and 0.002732%.
As for CYVCRFL, the “n (number of NGS reads of the unique amino acid sequence)” value is reported as 1 and the “percent (share of sequence reads)” value was found to be 0.0009106%.
Regarding HCGPRTAGD, the “n (number of NGS reads of the unique amino acid sequence)” value is 10 and the “percent (share of sequence reads)” value was determined as 0.009106%.
Consider TAGWIIETAGG, for which the “n (number of NGS reads of the unique amino acid sequence)” value amounted to 6 and the “percent (share of sequence reads)” value is reported as 0.005464%.
For WCGPRTAGD, in that order: 2 and 0.001821%.
With YDIYCYTAG, the “n (number of NGS reads of the unique amino acid sequence)” value was determined as 3 and the “percent (share of sequence reads)” value is 0.002732%.
Take KCGPRTAGD: the “n (number of NGS reads of the unique amino acid sequence)” value is listed as 9 and the “percent (share of sequence reads)” value was 0.008196%.
For QCGPRTAGY, in that order: 10 and 0.009106%.
Taken in the same sequence, the figures for HYVLFTAGG were 612 and 0.5573%.

The test is the same for the next values; noted with them: sheet ENLR3: round 3 of selection against ENL YEATS; TAG = amber codon (BuK).
For WWINETAGG, the “n (number of NGS reads of the 7-mer sequence V1-V7)” value is on record as 1 and the “percent (share of NGS reads of the 7-mer sequence V1-V7)” value was 0.0009106%.
Consider WWITETAGG, for which the “n (number of NGS reads of the 7-mer sequence V1-V7)” value came out at 1 and the “percent (share of NGS reads of the 7-mer sequence V1-V7)” value is listed as 0.0009106%.
Take WLAWRHL: the “n (number of NGS reads of the 7-mer sequence V1-V7)” value is on record as 1 and the “percent (share of NGS reads of the 7-mer sequence V1-V7)” value is 0.0009106%.
As to TAGVFALVI, the “n (number of NGS reads of the 7-mer sequence V1-V7)” value came out at 1 and the “percent (share of NGS reads of the 7-mer sequence V1-V7)” value was found to be 0.0009106%.
For YDGPWTAGG, in that order: 1 and 0.0009106%.
As to YLYVTAGAC, the “n (number of NGS reads of the 7-mer sequence V1-V7)” value stood at 1 and the “percent (share of NGS reads of the 7-mer sequence V1-V7)” value was determined as 0.0009106%.
For WWIIELG, in that order: 1 and 0.0009106%.
For VATAGMWPC, in that order: 1 and 0.0009106%.
Taken in the same sequence, the figures for TAGSGVASC were 1 and 0.0009106%.
As to SSGTAGKCV, the “n (number of NGS reads of the 7-mer sequence V1-V7)” value worked out at 1 and the “percent (share of NGS reads of the 7-mer sequence V1-V7)” value stood at 0.0009106%.
On to WWVLVTAGS, for which the “n (number of NGS reads of the 7-mer sequence V1-V7)” value is listed as 1 and the “percent (share of NGS reads of the 7-mer sequence V1-V7)” value is listed as 0.0009106%.
Taken in the same sequence, the figures for YGTAGHDFF were 1 and 0.0009106%.
As to QCGPWTAGG, the “n (number of NGS reads of the 7-mer sequence V1-V7)” value amounted to 1 and the “percent (share of NGS reads of the 7-mer sequence V1-V7)” value was 0.0009106%.

These data come from article PMC11046469, “Leveraging a Phage-Encoded Noncanonical Amino Acid: A Novel Pathway to Potent and Selective Epigenetic Reader Protein Inhibitors” (ACS Central Science, 2024).
